Tests used:
[1] = system: EGF-generated mouse neurospheres; assay: BDNF on single EGF-generated neurospheres (Example 12); type: cell-based; conditions: 10 ng/ml; 14-28 days in vitro; preliminary experiments
Description: The expression of the trk family of neurotrophin receptors in EGF-generated neurospheres was examined by northern blot analysis. Total mRNA was isolated from mouse and rat striatal EGF-generated neurospheres. […] In preliminary experiments, single EGF-generated mouse neurospheres were plated on poly-L-ornithine coated glass coverslips and cultured in the absence or presence of 10 ng/ml of BDNF. […] Activation of the trkB receptor on EGF-generated neurospheres may enhance differentiation, survival of and/or neurite outgrowth from newly generated neurons.

[2] = system: EGF-generated neurospheres; assay: Effect of growth factors on neurosphere differentiation, immunocytochemistry (Example 8); type: cell-based, mouse; conditions: paradigm 3; BDNF
Description: Six to 8 days after the first passage, the neurospheres were removed and centrifuged at 400 r.p.m. The EGF-containing supernatant was removed and the pellet suspended in EGF-free complete medium containing 1% FBS. Neurospheres (approximately 0.5-1.0×10^6 cells/well) were plated on poly-L-ornithine-coated (15 μg/ml) glass coverslips in 24 well Nuclon (1.0 ml/well) culture dishes. After 24 hours in culture, the coverslips were transferred to 12 well (Costar) culture dishes containing complete medium containing 0.5% FBS. The medium was changed every 4-7 days. This differentiation procedure is referred to as the “Rapid Differentiation Paradigm” or RDP.
Six to 8 days after the first passage, the neurospheres were removed and centrifuged at 400 r.p.m. The EGF-containing media was removed and the pellet was suspended in EGF-free complete medium containing 1% FBS. The neurospheres were mechanically dissociated into single cells with a fire-polished Pasteur pipette and centrifuged at 800 r.p.m. for 5 minutes. Between 0.5×10^6 and 1.0×10^6 cells were plated on poly-L-ornithine-coated (15 μg/ml) glass coverslips in 24 well Nuclon (1.0 ml/well) culture dishes. The EGF-free culture medium containing 1% FBS was changed every 4-7 days.
Neurospheres were washed free of EGF by serial transfers through changes of EGF-free medium. A single neurosphere was plated onto poly-L-ornithine-coated (15 μg/ml) glass coverslips in a 24-well plate. The culture medium used was complete medium with or without I % FBS. The medium was changed every 4-7 days.
Neurospheres were washed free of EGF by serial transfers through changes of EGF-free medium. A single neurosphere was mechanically dissociated in a 0.5 ml Eppendorf centrifuge tube and all the cells were plated onto a 35 mm culture dish. Complete medium was used with or without 1% FBS.
The effects of CNTF, FGF-2, BDNF, and retinoic acid on neurosphere differentiation were tested using the differentiation paradigms set forth in Example 7.
The effect of CNTF was assayed in paradigms 1 and 3. For both paradigms, CNTF was added either at the beginning of the experiment at a concentration of 10 ng/ml or daily at a concentration of 1 ng/ml.
Three different antibodies directed against 04, galactocerebroside (GalC) and MBP were used to study the effect of CNTF on the oligodendrocytes of paradigm 1. CNTF had no effect on the number of 04(+) cells, but there was an increase in the number of GalC(+) and MBP(+) cells compared with the control. Thus it appears that CNTF plays a role in the maturation of oligodendrocytes.
The effect of FGF-2 was tested using paradigms 2 and 4. In paradigm 2, 20 ng/ml of FGF-2 was added at the beginning of the experiment and cells were stained 7 days later. FGF-2 increased the number of GFAP(+) cells and the number of NSE(+) cells.
In paradigm 4, 20 ng/ml of FGF-2 was added at the beginning of the experiment and assayed 7-10 days later. […] It induced two different cell types to divide, neuroblasts and bipotential progenitor cells. The neuroblast produced, on average, 6 neurons while the bipotential cell produced approximately 6 neurons and a number of astrocytes.

[3] = system: EGF-generated precursor cells; assay: Screening of BDNF on differentiation and survival of stem cell progeny (Example 37); type: cell-based, mouse
Description: Precursor cells were propagated as described in Example 4 and differentiated using Paradigm 3 described in Example 7. At the time of plating the EGF-generated cells, BDNF was added at a concentration of 10 ng/ml. At 3, 7, 14, and 21 days in vitro (DIV), cells were processed for indirect immunocytochemistry. BrdU labeling was used to monitor proliferation of the precursor cells. The effects of BDNF on neurons, oligodendrocytes and astrocytes were assayed by probing the cultures with antibodies that recognize antigens found on neurons (MAP-2, NSE, NF), oligodendrocytes (O4, GalC, MBP) or astrocytes (GFAP). Cell survival was determined by counting the number of immunoreactive cells at each time point and morphological observations were made.
Cells treated with BDNF according to the methods described in Part A were probed with antibodies that recognize neural transmitters or enzymes involved in the synthesis of neural transmitters. These included TH, ChAT, substance P, GABA, somatostatin, and glutamate. In both control and BDNF-treated culture conditions, neurons tested positive for the presence of substance P and GABA.
Cells that are responsive to growth factor treatment were identified by differentiating the EGF-generated progeny as described in Example 7, paradigm 3 and at 1 DIV adding approximately 100 ng/ml of BDNF. At 1, 3, 6, 12 and 24 hours after the addition of BDNF the cells were fixed and processed for dual label immunocytochemistry. Antibodies that recognize neurons (MAP-2, NSE, NF), oligodendrocytes (O4, GalC, MBP) or astrocytes (GFAP) were used in combination with an antibody that recognizes c-fos and/or other immediate early genes.

B1: BDNF: brain-derived neurotrophic factor (protein, UniProt P23560 19-247, looked up)
Neurotrophic factor BDNF …: APMKEANIRGQGGLAYPGVRTHGTLESVNGPKAGSRGLTSLADTFEHVIEELLDEDQKVRPNEENNKDADLYTSRVMLSSQVPLEPPLLFLLEEYKNYLDAANMSMRVRRHSDPARRGELSVCDSISEWVTAADKKTAVDMSGGTVTVLEKVPVSKGQLKQYFYETKCNPMGYTKEGCRGIDKRHWNSQCRTTQSYVRALTMDSKKRIGWRFIRIDTSCVCTLTIKRGR
[1]
  morphology of NSE(+) cells: NSE(+) cells with extensive and highly branched processes
[2]
  neuronal branching and migration of the neurons away from the sphere: increase
  number of NSE(+) neurons per neurosphere: increase
[3]; 10 ng/ml
  neurite extension and branching: dramatic increase
[3]; 10 ng/ml, paradigm 3
  Astrocyte and oligodendrocyte numbers versus control: not significantly altered
[3]; 10 ng/ml, paradigm 3, 3-21 DIV
  differentiation and survival of neurons versus control: significantly increased
[3]; approximately 100 ng/ml at 1 DIV, 1-24 hours
  expression of c-fos: selective increase in the expression of c-fos in neuronal cells
